These are literature values, as cited in US11207384B2, “Rapid-acting insulin compositions” (Eli Lilly and Company, priority 2017, dated 2021).

For series [1] the following is noted: for time until maximum circulating insulin concentration is reached: following the injection.
The conditions of series [2]: on a molar basis.
A further series deals with T1, insulin receptor (Homo sapiens, UniProt P06213).
T1 construct: host or cells: cultured lymphocytes, human placenta, human liver
Conditions: insulin receptor binding in cultured lymphocytes, human placenta and human liver, glucose transport in adipocytes.

Take insulin glulisine: in series [1], the “time until maximum circulating insulin concentration is reached” value is 50 to 90 min.

In the case of insulin aspart, the “time until maximum circulating insulin concentration is reached” value in series [1] is 50 to 90 min.

Consider insulin lispro, for which the “kinetics compared to human insulin (in words)” value in series [1] (Tmax, half-life, Cmax) was “shorter Tmax and half-life and with a higher Cmax”. In addition, the “time until maximum circulating insulin concentration is reached” value in series [1] was 50 to 90 min. Besides, in series [1] (subcutaneous injection), the “effect after subcutaneous injection compared with soluble human insulin (in words)” value was “more rapid and of shorter duration than that of injected soluble human insulin”. The “potency relative to human insulin (in words)” value in series [2] was “equipotent to human insulin on a molar basis”. The “equivalence to insulin in in vitro tests (in words)” value with insulin receptor is “biologically equivalent to insulin”.
